Measured values reported in paper PMC9637102, “Structural basis for the activation of the lipid scramblase TMEM16F” (Nature Communications, 2022).

B1: murine TMEM16F mutant F518H (natural protein, UniProt Q6P9J9 1-911, looked up)
chain: MQMMTRKVLLNMELEEDDDEDGDIVLENFDQTIVCPTFGSLENQQDFRTPEFEEFNGKPDSLFFTDGQRRIDFILVYEDESKKENNKKGTNEKQKRKRQAYESNLICHGLQLEATRSVSDDKLVFVKVHAPWEVLCTYAEIMHIKLPLKPNDLKTRSPFGNLNWFTKVLRVNESVIKPEQEFFTAPFEKSRMNDFYILDRDSFFNPATRSRIVYFILSRVKYQVMNNVNKFGINRLVSSGIYKAAFPLHDCRFNYESEDISCPSERYLLYREWAHPRSIYKKQPLDLIRKYYGEKIGIYFAWLGYYTQMLLLAAVVGVACFLYGYLDQDNCTWSKEVCDPDIGGQILMCPQCDRLCPFWRLNITCESSKKLCIFDSFGTLIFAVFMGVWVTLFLEFWKRRQAELEYEWDTVELQQEEQARPEYEAQCNHVVINEITQEEERIPFTTCGKCIRVTLCASAVFFWILLIIASVIGIIVYRLSVFIVFSTTLPKNPNGTDPIQKYLTPQMATSITASIISHIIIMILNTIYEKVAIMITNFELPRTQTDYENSLTMKMFLFQFVNYYSSCFYIAFFKGKFVGYPGDPVYLLGKYRSEECDPGGCLLELTTQLTIIMGGKAIWNNIQEVLLPWVMNLIGRYKRVSGSEKITPRWEQDYHLQPMGKLGLFYEYLEMIIQFGFVTLFVASFPLAPLLALVNNILEIRVDAWKLTTQFRRMVPEKAQDIGAWQPIMQGIAILAVVTNAMIIAFTSDMIPRLVYYWSFSIPPYGDHTYYTMDGYINNTLSVFNITDFKNTDKENPYIGLGNYTLCRYRDFRNPPGHPQEYKHNIYYWHVIAAKLAFIIVMEHIIYSVKFFISYAIPDVSKITKSKIKREKYLTQKLLHESHLKDLTKNMGIIAERIGGTVDNSVRPKLE
notes: TMEM16F (anoctamin-6), murine; point mutant F518H; A 3C recognition site stands between TMEM16F and the C-terminal Myc and SBP tags; no cleavage is described; also called F518H^noCa; F518H^Ca; source: TMEM16F KO cells in suspension culture, transient transfection (PEI MAX); purified (Strep-tactin, SEC on Superose 6) in digitonin, or reconstituted into MSP 2N2 nanodiscs (3 POPC:1 POPG)
B2: murine TMEM16F double mutant F518A/Q623A (natural protein, UniProt Q6P9J9 1-911, looked up)
chain: MQMMTRKVLLNMELEEDDDEDGDIVLENFDQTIVCPTFGSLENQQDFRTPEFEEFNGKPDSLFFTDGQRRIDFILVYEDESKKENNKKGTNEKQKRKRQAYESNLICHGLQLEATRSVSDDKLVFVKVHAPWEVLCTYAEIMHIKLPLKPNDLKTRSPFGNLNWFTKVLRVNESVIKPEQEFFTAPFEKSRMNDFYILDRDSFFNPATRSRIVYFILSRVKYQVMNNVNKFGINRLVSSGIYKAAFPLHDCRFNYESEDISCPSERYLLYREWAHPRSIYKKQPLDLIRKYYGEKIGIYFAWLGYYTQMLLLAAVVGVACFLYGYLDQDNCTWSKEVCDPDIGGQILMCPQCDRLCPFWRLNITCESSKKLCIFDSFGTLIFAVFMGVWVTLFLEFWKRRQAELEYEWDTVELQQEEQARPEYEAQCNHVVINEITQEEERIPFTTCGKCIRVTLCASAVFFWILLIIASVIGIIVYRLSVFIVFSTTLPKNPNGTDPIQKYLTPQMATSITASIISAIIIMILNTIYEKVAIMITNFELPRTQTDYENSLTMKMFLFQFVNYYSSCFYIAFFKGKFVGYPGDPVYLLGKYRSEECDPGGCLLELTTQLTIIMGGKAIWNNIAEVLLPWVMNLIGRYKRVSGSEKITPRWEQDYHLQPMGKLGLFYEYLEMIIQFGFVTLFVASFPLAPLLALVNNILEIRVDAWKLTTQFRRMVPEKAQDIGAWQPIMQGIAILAVVTNAMIIAFTSDMIPRLVYYWSFSIPPYGDHTYYTMDGYINNTLSVFNITDFKNTDKENPYIGLGNYTLCRYRDFRNPPGHPQEYKHNIYYWHVIAAKLAFIIVMEHIIYSVKFFISYAIPDVSKITKSKIKREKYLTQKLLHESHLKDLTKNMGIIAERIGGTVDNSVRPKLE
notes: TMEM16F (anoctamin-6), murine; double mutant F518A and Q623A; A 3C recognition site stands between TMEM16F and the C-terminal Myc and SBP tags; no cleavage is described; source: TMEM16F KO cells in suspension culture, transient transfection (PEI MAX); purified (Strep-tactin, SEC on Superose 6) in GDN
B3: murine TMEM16F mutant N562A (natural protein, UniProt Q6P9J9 1-911, looked up)
chain: MQMMTRKVLLNMELEEDDDEDGDIVLENFDQTIVCPTFGSLENQQDFRTPEFEEFNGKPDSLFFTDGQRRIDFILVYEDESKKENNKKGTNEKQKRKRQAYESNLICHGLQLEATRSVSDDKLVFVKVHAPWEVLCTYAEIMHIKLPLKPNDLKTRSPFGNLNWFTKVLRVNESVIKPEQEFFTAPFEKSRMNDFYILDRDSFFNPATRSRIVYFILSRVKYQVMNNVNKFGINRLVSSGIYKAAFPLHDCRFNYESEDISCPSERYLLYREWAHPRSIYKKQPLDLIRKYYGEKIGIYFAWLGYYTQMLLLAAVVGVACFLYGYLDQDNCTWSKEVCDPDIGGQILMCPQCDRLCPFWRLNITCESSKKLCIFDSFGTLIFAVFMGVWVTLFLEFWKRRQAELEYEWDTVELQQEEQARPEYEAQCNHVVINEITQEEERIPFTTCGKCIRVTLCASAVFFWILLIIASVIGIIVYRLSVFIVFSTTLPKNPNGTDPIQKYLTPQMATSITASIISFIIIMILNTIYEKVAIMITNFELPRTQTDYENSLTMKMFLFQFVAYYSSCFYIAFFKGKFVGYPGDPVYLLGKYRSEECDPGGCLLELTTQLTIIMGGKAIWNNIQEVLLPWVMNLIGRYKRVSGSEKITPRWEQDYHLQPMGKLGLFYEYLEMIIQFGFVTLFVASFPLAPLLALVNNILEIRVDAWKLTTQFRRMVPEKAQDIGAWQPIMQGIAILAVVTNAMIIAFTSDMIPRLVYYWSFSIPPYGDHTYYTMDGYINNTLSVFNITDFKNTDKENPYIGLGNYTLCRYRDFRNPPGHPQEYKHNIYYWHVIAAKLAFIIVMEHIIYSVKFFISYAIPDVSKITKSKIKREKYLTQKLLHESHLKDLTKNMGIIAERIGGTVDNSVRPKLE
notes: TMEM16F (anoctamin-6), murine; point mutant N562A; A 3C recognition site stands between TMEM16F and the C-terminal Myc and SBP tags; no cleavage is described; also called N562A^Ca; N562A^Cacc; source: TMEM16F KO cells in suspension culture, transient transfection (PEI MAX); purified (Strep-tactin, SEC on Superose 6) in digitonin

Assays:
[1] = molecular target: the molecule itself; experiment: cryo-EM structure; protein in digitonin (20 mM HEPES pH 7.4, 150 mM NaCl, 2 mM EGTA, 0.1% digitonin), 1.5-2 mg/ml; Ca2+-free, or with 2 mM free CaCl2 and 0.01 mM diC8-PI(4,5)P2; homodimer
[2] = molecular target: the molecule itself; experiment: cryo-EM structure; protein in GDN (0.03% in the SEC buffer), Ca2+-bound; homodimer

Protein	binding result [1]	binding result [2]
B1	binds	–
B2	–	binds
B3	binds	–
